The values that follow come from paper PMC5095173, “Disulfide-activated protein kinase G Iα regulates cardiac diastolic relaxation and fine-tunes the Frank–Starling response” (Nature Communications, 2016).

For test [1], the system named is PKGIα (analogue-sensitive M438G), disulfide-activated. Kind of test: Chemical genetic phosphoproteomic screen, disulfide-activated PKGIα M438G versus unactivated control. The note with it: n=4. It counts as biochemical, human PKGIα; substrates in rat heart homogenate. From the text: (§1) We employed a chemical genetic method[18] to identify direct substrates of cGMP-activated PKGIα and disulfide bond-activated PKGIα in heart tissue. This method involves mutation of the ATP binding-site of the kinase of interest so that it can accept a ‘bulky' N6-alkylated ATP analogue for example, N6^−phenylethyl ATP. An oxygen atom on the γ phosphate is also replaced with a sulfur atom—giving an N6-alkylated ATPγS analogue—so that the mutant kinase catalyses the transfer of a thiophosphate group (–PO3S^3−) to its substrates instead of a phosphate. The thiophosphate group is nucleophilic, providing a basis for substrates of the analogue-sensitive kinase to be purified by a ‘covalent capture' protocol. LC–MS/MS allows identification of the substrate and localization of the phosphorylation site. Thiophosphorylated proteins can also be detected with a thiophosphate ester-specific antibody. Analogue-sensitive mutants of PKGIα and PKGIα C42S (which cannot form the activating intermolecular disulfide bond) were generated by mutating Met438 in the ATP-binding domain to Gly. This mutation was chosen based on a previous study where an analogue-sensitive mutant of the catalytic subunit of PKA—which shares sequence homology with PKGIα—was engineered. Detailed protocols are given below.
(§2) A pCDNA3 expression vector encoding human FLAG-tagged PKGIα (ref. [41]) underwent site-directed mutagenesis to generate constructs for untagged WT, C42S, M438G and C42S/M438G PKGIα. Mutations were introduced using the QuikChange II Site-Directed Mutagenesis Kit (Agilent) according to the manufacturer's instructions. Expression and purification of the PKGIα mutants was performed according to a published method[42] as follows: suspension FreeStyle 293-F cells (ThermoFisher Scientific) were transfected with the appropriate PKGIα construct using the stable cationic polymer polyethyleneimine (PEI) as a transfection reagent. After ∼72 h cells were harvested by centrifugation (400g; room temperature; 15 min), re-suspended in ice cold lysis buffer (25 mM sodium phosphate buffer pH 6.8; 10 mM ethylenediaminetetraacetic acid (EDTA); 100 mM NaCl; 10 mM benzamidine hydrochloride; and 10 mM dithiothreitol (DTT)) and frozen in liquid N2. Cells were lysed by three freeze (liquid N2)-thaw (37 °C) cycles and the lysate was clarified by centrifugation at 140,000g and 4 °C for 30 min. The soluble protein fraction was loaded onto a pre-equilibrated 8-(2-aminoethylamino)adenosine-3′, 5′-cyclic monophosphate column (8-AEA-cAMP agarose; BioLog, Germany) followed by washing with 20 column volumes of lysis buffer. The column was further washed with lysis buffer +3 M NaCl (5 column volumes) and PKGIα was then eluted with lysis buffer +150 mM NaCl and 500 μM cAMP. Removal of cAMP and buffer exchange was achieved by extensive dialysis against 25 mM sodium phosphate buffer pH 6.8, 2 mM EDTA and 100 mM NaCl. For ITC analysis, WT PKGIα was incubated with 10 mM lipoic acid for 2 h on ice to obtain ∼100% disulfide dimer (confirmed by SDS-PAGE). Oxidized WT or C42S PKGIα was further purified by size exclusion chromatography using a HiLoad 16/600 Superdex 200 pg column (GE Healthcare) with 50 mM sodium phosphate buffer pH 7.4 and 100 mM NaCl. Proteins were concentrated using Amicon Ultra centrifugal filter devices (Merck Millipore). DTT was absent in storage buffers so that the activating disulfide bond would not be reduced and so that the PKGIα M438G mutant would be oxidized to disulfide dimer in the presence of air (confirmed by SDS-PAGE). Protein concentration was determined by Pierce BCA assay (ThermoFisher) and enzyme activity was confirmed using the Omnia kinase assay kit (ThermoFisher).
(§3) Male Wistar rats (9–10 weeks; body weight 300–330 g) were euthanized by intraperitoneal injection of sodium pentobarbitone (200 mg kg^−1) with heparin (500 USP units). […]

Test [2] relates to PKGIα (analogue-sensitive C42S/M438G), cGMP-activated. Description: Chemical genetic phosphoproteomic screen, cGMP-activated PKGIα C42S/M438G versus unactivated control. It counts as biochemical, human PKGIα; substrates in rat heart homogenate. As to conditions: n=4.
Source text: as §1, §2, §3

[3] abbreviates: disulfide-activated PKGIα M438G vs basal, 1 h, 30 °C, pH 7.5, rat heart homogenate, label-free LC–MS/MS, * P<0.05 Dunnett: only phospholamban S16.
Where [4] appears, read: PKGIα C42S/M438G + 100 μM cGMP vs basal, 1 h, 30 °C, pH 7.5, rat heart homogenate, label-free LC–MS/MS, * P<0.05 Dunnett: all values except phospholamban S16.

B1: Microtubule-associated protein 4: PKGIα substrate, phospho site T899 (protein, UniProt Q5M7W5 2-1057, looked up)
Microtubule-associated …: ADLSLVDALTEPPPEIEGEIKRDFMAALEAEPYDDIVGETVEKTEFIPLLDGDEKSGNSESKRKPCVDTSQVEDIPSSKPTLLANGDHGVEGNNTTGSPTDFLVENVDYEDYQNSQSWPEDASFCFQPQQVLDTNQADPFNVHHDDGLADLLFVSSGPTNASAFIEENNPLEDSYGVLPCDSFAPTAVVSQEWSVGAPDSPHSEPCVSPEVTIETAQPATELSKAVDLESVKEQLPAKALEMMAGQTTDAVPSKESEGSPDTDAAPGPDTDVTLTKDIEESSSPDVISANVTQPFTESDMFLTQEMELLIGTEAAQVKDTMSSVEPDISSAKNTAPPTEEETVPGKDMTFPKEAETALPIEMDLAPPEDVALPKETELELAPAAGTAPLSETEVALAKDEEPSTGIPAAQEMLLSSETEVVLPSDSIMTLTKEVTVPLEAAGPLVSDMTAILETEMTLGGGTATPTETKLGKVKDMAPLPESEVALGKDVVTLPETKVTEFNNVTPLSEEEVASIKDVSPSPETETAKNADLHSGTELTLDNSMTPPSDPALPLETKVATVQIKDKETVQTQEELSEDSQLESVQLEGQSAVPPCTISPEPVKAADQKSTLPVDEGSPLEKLEQKETSGSQPPELCSGVSRQEEGKAAVGLTGNDIATPPNKELPPSPEKKAKPLATTQPAKTSTSKAKIQPTSLPKQPAPTTSGGLNKKPMSLASGSVPAAPHKRPAAATATARPSTLPARDLKPKPITETKVAEKRTSPSKPSSAPALRPGPKTTPTISKATSPSTLVSTGSSSRSPSTTLPKRPTTTKTEGKPADVKRMTAKSATADLSRSKTTSASSVKRNTTPTGATPPAGMASTRVKPMSAPCRSSVALSVDKKPTSTKPSSSAPRVSRLATTVSAPDLKSVRSKVGSTENMKHQPGGGRVQIQNKKVDISKVSSKCGSKANIKHKPGGGDVKIESQKLNFKEKAQAKVGSLDNVGHLPAGGTVKTEGGGSEAPPCPGPPAGEEPAIPEAAPDAGAPTSASGLSGHTTLSGGGDQREPQTLDSQIQETSI
modifications: phosphorylated at T899
In the case of B1, the “Log2 fold change in phosphorylation, Disulfide versus control” value in test [1] (setting [3]) is recorded as 1.73. Further, in test [2] (setting [4]), the “Log2 fold change in phosphorylation, cGMP versus control” value (“Log2 fold change … cGMP versus control” for short) is 3.69*.

B2: Mitochondrial ribonuclease P protein 1: PKGIα substrate, phospho site T377 (protein, UniProt Q5U2R4 36-414, looked up)
tRNA methyltransferase 10 …: VSSKVPSLPCHNKDSTSPPEQLELDGWKTTMKSSIQENGVSVVSDKDEDSLAATRELIEMWRLLGKEVPEHITEEELKTLMECASKSAKKKYLRYLYGKEMMKKAKQMKKEMKAAAREEAKRARSLEPSTGEEQRDFMFLRLWDRQTNIALGWKGVQAMQFGQPLVFDMAYDNYMKPSELQNTVSQLLESEGWNRRNVDPFHIYFCNLEVDGAYHRELVKRYGEKWDKLLLTATEKSPVDLFPKDSIIYLTADSPNVMTTFKHDKIYIIGSFVDKNTQTGTSLAKAKRQNLATECLPLDKYLQWDVGNKNLTLDQMIRILLCLKNTGNWEEALKFVPRRKHTGYLEVPEHSQAAFRKLKKTKTLNSFRKGSLNVHMWKR
modifications: phosphorylated at T377
For the molecule B2, in test [1] (setting [3]), the “Log2 fold change in phosphorylation, Disulfide versus control” value is 0.45. In addition, the “Log2 fold change … cGMP versus control” value in test [2] (setting [4]) was 1.98*.

B3: Matrin-3: PKGIα substrate, phospho site T150 (protein, UniProt P43244 2-845, looked up)
Matrin-3: SKSFQQSSLGRDSQGHGRDLSAAGIGLLAAATQSLSMPASLGRMNQGTARLASLMNLGMSSSLNQQGAHSALSSASTSSHNLQSIFNIGSRGPLPLSSQHRGDTDQASNILASFGLSARDLDELSRYPEDKITPENLPQILLQLKRRRTEEGPTLSYGRDGRSATREPPYRVPRDDWEEKRHFRRDSFDDRGPSLNPVLDYDHGSRSQESGYYDRMDYEDDRLRDGERCRDDSFFGETSHNYHKFDSEYERMGRGPGPLQERSLFEKKRGAPPSSNIEDFHGLLPKGYPHLCSICDLPVHSNKEWSQHINGASHSRRCQLLLEIYPEWNPDNDTGHTMGDPFMLQQSTNPAPGILGPPPPSFHLGGPAVGPRGNLGAGNGNLQGPRHMQKGRVETSRVVHIMDFQRGKNLRYQLLQLVEPFGVISNHLILNKINEAFIEMATTEDAQAAVDYYTTTPALVFGKPVRVHLSQKYKRIKKPEGKPDEKFDQKQELGRVIHLSNLPHSGYSDSAVLKLAEPYGKIKNYILMRMKSQAFIEMETREDAMAMVDHCLKKALWFQGRCVKVDLSEKYKKLVLRIPNRGIDLLKKDKSRKRSYSPDGKESPSDKKSKTDGAQKTENPAEGKEQEEKSGEDGEKDTKDDQTEQEPSMLLESEDELLVDEEEAAALIESGSSVGDETDLANLGDVSSDGKKEPSDKAVKKDASATSKKKLKKVDKIEELDQENEAALENGIKNEENTEPGAESAENADDPNKDASDNSDGQNDENKEDYTIPDEYRIGPYQPNVPGGIDYVIPKTGFYCKLCSLFYTNEEVAKNTHCSSLPHYQKLKKFLNKLAEERRQKKES
modifications: phosphorylated at T150
Take B3: the “Log2 fold change in phosphorylation, Disulfide versus control” value in test [1] (setting [3]) was determined as 1.38. In test [2] (setting [4]), the “Log2 fold change … cGMP versus control” value was 3.58*.

B4: Polymerase I and transcript release factor: PKGIα substrate, phospho sites T304 (r27) and S302 (r28) (protein, UniProt P85125 1-392, looked up)
Caveolae-associated protein 1: MEDVTLHIVERPYSGYPDASSEGPEPTPGEARATEEPSGTGSDELIKSDQVNGVLVLSLLDKIIGAVDQIQLTQAQLEERQAEMEGAVQSIQGELSKLGKAHATTSNTVSKLLEKVRKVSVNVKTVRGSLERQAGQIKKLEVNEAELLRRRNFKVMIYQDEVKLPAKLSVSKSLKESEALPEKEGDELGEGERPEEDAAAIELSSDEAVEVEEVIEESRAERIKRSGLRRVDDFKKAFSKEKMEKTKVRTRENLEKTRLKTKENLEKTRHTLEKRMNKLGTRLVPVERREKLKTSRDKLRKSFTPDHVVYARSKTAVYKVPPFTFHVKKIREGEVEVLKATEMVEVGPDDDEVGAERGAETDLLRGSSPDVHTLLEITEESDAVLVDKSDSD
modifications: phosphorylated at T304/S302
Regarding B4, the “Log2 fold change in phosphorylation, Disulfide versus control” value in test [1] (setting [3]) is listed as 1.30; in test [1] (phospho site S302 (second site of this protein), not significant), 1.32. For the same molecule, the “Log2 fold change … cGMP versus control” value in test [2] (setting [4]) is listed as 3.05*; in test [2] (phospho site S302 (second site of this protein), * P<0.05) it was 3.16*.

B5: Myosin light chain kinase 3: PKGIα substrate, phospho site S155 (protein, UniProt E9PT87 1-786, looked up)
Myosin light chain kinase 3: MSGVSEEDPEGLGPQGLPALGGACLVTVDKKLNVLTEKVDRLLHFQEDVTEKLQCVCQGMDHLEQGLHRLEASQELGLAGPGSTSPAAAQAAWPEVLELVRAVRQEGAQHGARLEALFKMVVAVDRAITLVGSTIQNSKVDDFILQGTVPWRKGSLADGPEENKEQAEVAGVKPKHVLNTGSVQAATSRALWEESQKQDTPVGTVEGLPLIIDTSLKGADLTQAGASLRQGVEALDPGQEPPPTEAESRLPALASEDTGTTLELSVAIDRISEVLTSLRMSQSAGEGTSSSKPDCSEPGPQPLGPLTTDSDIHSDEGLPRISVRMREMTTPEELFETQGGSPIGSAEAPGPGTVLEDQIPKGARPFPPLPKRSCNNGGASAEEATGPGAEPIRGPSLVTRDWRDEPVGTTDLQQGRDPGAVSPEPGKDHAAQGPGRTEAGRRVSSAAEAAIVVLDDSAAPPAPFEHRVVSIKDTLISTSYTVSQHEVLGGGRFGQVHRCTERSTGLALAAKIIKVKNIKDREDVKNEINIMNQLSHVNLIQLYDAFESKNSFTLIMEYVDGGELFDRITDEKYHLTELDVVLFTRQICEGVHYLHQHYILHLDLKPENILCVSQTGHQIKIIDFGLARRYKPREKLKVNFGTPEFLAPEVVNYEFVSFPTDMWSVGVITYMLLSGLSPFLGETDAETMNFIVNCSWDFDADTFKGLSEEAKDFVSRLLVKEKSCRMSATQCLKHEWLNHLIAKASGSNVRLRSQLLLQKYMAQRKWKKHFHVVTAVNRLRKFPTCP
modifications: phosphorylated at S155
For B5, in test [1] (setting [3]), the “Log2 fold change in phosphorylation, Disulfide versus control” value was found to be 1.13. In test [2] (setting [4]), the “Log2 fold change … cGMP versus control” value is listed as 3.16*.
